In the assay the target is T1, WWP2 WT (human, UniProt O00308 1-870).
T1 construct: called the ~100 kDa WWP2 protein; Unlabelled WWP2 titrated in the fluorescence anisotropy assays; also called WT WWP2; source: E. coli (BL-21 (DE3) Codon+ or BL21 Rosetta (DE3) pLysS), purified (glutathione agarose, GST removed, size exclusion)
Briefly: fluorescence polarisation; fluorescence anisotropy; 100 nM fluorescein-labeled WBP2, WWP2 titrated; 23 °C; quadratic binding fit. The note with it: both partners purified. (In general: Polarisation of emitted light reports the rotation of a fluorescent probe.)

T1 sequence (O00308 whole entry): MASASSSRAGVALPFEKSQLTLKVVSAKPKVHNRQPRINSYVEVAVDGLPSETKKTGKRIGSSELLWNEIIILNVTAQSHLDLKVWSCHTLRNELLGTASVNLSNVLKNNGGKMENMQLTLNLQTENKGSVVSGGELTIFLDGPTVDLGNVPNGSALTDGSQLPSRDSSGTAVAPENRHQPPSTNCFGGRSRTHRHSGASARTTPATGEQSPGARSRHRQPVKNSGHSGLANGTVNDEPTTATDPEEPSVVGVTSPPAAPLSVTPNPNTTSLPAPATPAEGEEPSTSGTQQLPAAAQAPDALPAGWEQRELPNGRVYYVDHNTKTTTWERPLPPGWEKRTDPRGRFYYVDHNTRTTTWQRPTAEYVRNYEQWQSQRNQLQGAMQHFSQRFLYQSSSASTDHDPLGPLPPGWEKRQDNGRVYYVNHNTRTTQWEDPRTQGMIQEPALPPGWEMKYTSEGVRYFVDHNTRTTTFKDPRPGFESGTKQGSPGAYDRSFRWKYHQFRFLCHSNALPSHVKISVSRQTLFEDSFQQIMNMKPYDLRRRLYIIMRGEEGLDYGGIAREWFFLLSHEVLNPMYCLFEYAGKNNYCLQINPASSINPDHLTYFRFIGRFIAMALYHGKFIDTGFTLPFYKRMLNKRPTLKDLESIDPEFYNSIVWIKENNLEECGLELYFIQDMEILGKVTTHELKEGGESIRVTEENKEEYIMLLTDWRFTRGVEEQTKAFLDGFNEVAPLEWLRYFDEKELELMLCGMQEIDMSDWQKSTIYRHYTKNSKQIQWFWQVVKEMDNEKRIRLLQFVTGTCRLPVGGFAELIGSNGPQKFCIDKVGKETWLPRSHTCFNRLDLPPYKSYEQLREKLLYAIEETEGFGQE

B1: Fluorescein N-terminal-labeled WBP2 (aa. 149-261) (domain or fragment, human, UniProt Q969T9 149-261, looked up)
chain: PSGAYVYPPPVANGMYPCPPGYPYPPPPPEFYPGPPMMDGAMGYVQPPPPPYPGPMEPPVSGPDVPSTPAAEAKAAEAAASAYYNPGNPHNVYMPTSQPPPPPYYPPEDKKTQ
modifications: fluorescein (5/6-carboxyfluorescein, FAM) on the N-terminus
notes: WBP2, human, aa; 149-261, from pET28b-WBP2; Labelled 'with a similar procedure as that used for WWP2' (N-terminal Cys after protease cleavage), so an N-terminal Cys and loss of the tag may apply; also called FAM labeled WBP2; fluorescein-labeled WBP2; source: E. coli Rosetta pLysS, purified (Ni-NTA, Superdex 75), fluorescein labelled
Broadly, the Kd is the constant that tells how readily two partners part at equilibrium. B1 showed a dissociation constant (Kd) of 3.7 µM.
